A protein production outcome set (Wang et al. 2014)

Experiment: label from the status in PepcDB records

| Sequence | protein production |
| --- | --- |
| MAALSGVFVWDEERIQEEELQRSINEMKRLEEMSNIFQSSGVENYPPEPKSPAGGNEKSKDKEEPWEMVMDKKHFKLWRRPITGTHLYQYRVFGTYTDVTPRQFFNVQLDTEYRKKWDALVIKLEVIERDAVSGSEVLHWVTHFPYPMYSRDYVYVRRYSVDQENNVMVLVSRAVEHPSVPESPEFVRVRSYESQMVIRPHKSFDENGFDYLLTYSDNPQTVFPRYCVSWMVSSGMPDFLEKLHMATLKAKNMEIKVKDYISAKPLEMSSEAKATAPSPERKNEGSCGPARIEYA | failed |
| MAARLLFRRSSQILRSIQRNPQISSSFESPPCPIFHSLTTASPDPSRLSSLTFLRSLSIARRGPTRPKKIDIGAKARQMQNRRLWTYALTFSCIAGFVVIVLNQFQDQLVFYLTPSDAMEKFAENPTKNKFRLGGLVLEGSVAQPAASQEMEFVITDLITDILVRYKGSLPDLFREGHSVVVEGFIKPYTDEVRKEVSTKPISKKARNLDCFFSATEVLAKHDEKYMPQEVAAAIEKNKKIIEAAATEQAAEVAAS | failed |
| MAASPSTYAFNGESKETGNDSSKLSKAPATKGGKPHIIFIMSDQHRGDALHCMGNKAVISPNIDKLAQEGSLFVCGYSSAPSSTPARAGLLTGMSPWHHGMLGYGKVASKYKYEMPQMLRDLGYYTFGIGKMHWFPQKALHGFHATLVDESGRSETRDFISDYREWFQLQAPGKNPDLTGIGWNNHNAGTYKLEERLHPTAWTGQTACELIRNYDSDQPLFLKVSFARPHSPYDPPKRYLDMYEKVDIPVPFVGDWCGKYAERKDPERVSKDAAFANLGEEYAVNSRRHYYANVTFIDDQIGQIIQTLKEKGMYENAIICYTADHGDMLGDHYHWRKTYAYEGSAKIPYIIKWPSAMTTQAIRGKRIEQPVELRDFLPTFIELAGGTVPDDMDGKSLVALASGNKNGWRKYIDLEHATCYSADNYWCALTDGKMKYIWFIHTGEEQLFDLSSDPGEQKNLSGNSRYADRLVEMRKAMVDHLQERGTEFVKDGKLAVRDQTLLYSPNYPKD | failed |
| MAASSQAPEAKGFRWKLIAPLVVWLAIYLWPVPSGLNVNQWHYFAVFAAVITGLILESMPVGAVGLIGLTVAGVGGYIDPDPTKSLRWMLAGFAESTVWLIVGAFVFSIGYRKSQLGRRIALVLVQKLGSNTLGLGYAVAMSDFLLAPATPSNTARSGGIVYPIISNIPRIYGSEPGPTAGRIGTYVMWTAFAATAVTSSLFFTALAPNAAALAIAKKTVGVEVSWGQWFIGFAPLGILLMILVPLLSYPVCRPEVKRSPEIAEWAAKELSEMGPMSRNEWIMLALIVLAMFLWIAGSSPDINVPLLGSNFVNATTVVFIVISLMLVTGVIEFADIVSEKSAWEVFFYFTSLLTLASGLNEIGFIKWFATEYAKPLAGLSPSTAMILLVALFFWIHYFFSSITSHAAAVLPVVLAVGSGIPGLPVTTLAMLCMYSLGLMGVISPYATGPAPMYFGSGYIGKGQFWGFGLIFGLLYFAGLLLIVLPWLQVR | failed |
| MAASTSSSSSSSSSSLSSPSPCTWRYMTFTSFHGPDVRNTFLSHLRKQFNTNGITMFDDQRMERSQTLAPTLTQAIRESKIYIVLLSKNYASSSWCLDELLEILNCKEKRGQRVMTIFYGVNPSDVRKQTGEFGIAFNETCARKTEEERRKWSHALTCVGNITGVHVQDRDDEANMIEKIATDVSEKLNATESKDFDEMVGIKAHLTKIESLLSLDYDKVKIVGISGPAGIGKSTIARALHNLLSSSFHLSCFMENLISQSNPHSSLEYSSKLSLQEQLLSQVLNEKDIRIRHLGAIQERLHDQRVLIILDDVTSLEQLEVLANIKWYGPGSRIIVITKKKDILVQHGICDIYHVGFPTDADALKIFCLSAYRQTSPPDGSMKIHECEMFIKICGNLPLHLHVLGSALRGRSYGRVQSLCNLVSLADFV | failed |
| MAAVWQQVLAVDARYNAYRTPTFPQFRTQYIRRRSQLLRENAKAGHPPALRRQYLRLRGQLLGQRYGPLSEPGSARAYSNSIVRSSRTTLDRMEDFEDDPRALGARGHRRSVSRGSYQLQAQMNRAVYEDRPPGSVVPTSAAEASRAMAGDTSLSENYAFAGMYHVFDQHVDEAVPRVRFANDDRHRLACCSLDGSISLCQLVPAPPTVLRVLRGHTRGVSDFAWSLSNDILVSTSLDATMRIWASEDGRCIREIPDPDSAELLCCTFQPVNNNLTVVGNAKHNVHVMNISTGKKVKGGSSKLTGRVLALSFDAPGRLLWAGDDRGSVFSFLFDMATGKLTKAKRLVVHEGSPVTSISARSWVSREARDPSLLINACLNKLLLYRVVDNEGTLQLKRSFPIEQSSHPVRSIFCPLMSFRQGACVVTGSEDMCVHFFDVERAAKAAVNKLQGHSAPVLDVSFNCDESLLASSDASGMVIVWRREQK | failed |
| MAAWCSPRWLRVAVGTPRLPAAAGRGVQQPQGGVVAASLCRKLCVSAFGLSMGAHGPRALLTLRPGVRLTGTKSFPFVCTASFHTSASLAKDDYYQILGVPRNASQKDIKKAYYQLAKKYHPDTNKDDPKAKEKFSQLAEAYEVLSDEVKRKQYDAYGSAGFDPGASSSGQGYWRGGPSVDPEELFRKIFGEFSSSPFGDFQNVFDQPQEYIMELTFNQAAKGVNKEFTVNIMDTCERCDGKGNEPGTKVQHCHYCSGSGMETINTGPFVMRSTCRRCGGRGSIITNPCVVCRGAGQAKQKKRVTVPVPAGVEDGQTVRMPVGKREIFVTFRVQKSPVFRRDGADIHSDLFISIAQAILGGTAKAQGLYETINVTIPAGIQTDQKIRLTGKGIPRINSYGYGDHYIHIKIRVPKRLSSRQQNLILSYAEDETDVEGTVNGVTHTSTGGRTMDSSTGSKDRREAGEDNEGFLSKLKKIFTS | failed |
| MAAWRAEARRLAQAGVPAESVVWRVGAGEADLFADLPALPAGPARQIRLSREAVGSLETALCHADPERFGRAYGLLLRLADGTLRWGDRSDPALRKLLAQEKMVRREIHKMHAFVRFRELPSEGPRRAFAAWFEPDHPVEEAATPFFARRFGDMDWAIVTPEVTARFVAGQLDFALTEERTAPPADGTEELWRTYYANIFNPARLMVKAMQSEMPKRYWKNLPEAELIPGLIRGAAERAAEMQAAAPTEPPARTAAVARQRAAAAGGPAAAGDGSAPGTLAEAKTAAEGCRRCGLWANATQVVFGEGPATARMMIVGEQPGDREDLAGRPFVGPAGQLFDEEAAAAGLDRGSVYVTNAVKHFKFAPRGKRRIHQKPDAGEVTACRWWLDLERDLVRPRLIVAMGATALASLTGSGAGILKRRGSVERLDDGTPVFVTVHPSYILRLPDEAARVEERRRFRDDLQAARQLLERLD | failed |
| MAAYQVLIVGAGFSGAETAFWLAQKGVRVGLLTQSLDAVMMPFLPPKPPFPPGSLLERAYDPKDERVWAFHARAKYLLEGLRPLHLFQATATGLLLEGNRVVGVRTWEGPPARGEKVVLAVGSFLGARLFLGGVVEEAGRLSEASYPDLLEDLSRLGFRFVEREGEVPETPSTPGYRVRYLAFHPEEWEEKTFRLKRLEGLYAVGLCVREGDYARMSEEGKRLAEHLLHELG | not failed |
| MACARAWRTMSPCGGKQVHPLQECGLCSAPAGVARTHARQGADPMLPELGTFLLVLALLVALVQAVVPLAGAQRGRSSWMAVARPAAMVQLALIASAFAVLTHAFLVQDFSVRYVAENSNSLLPMMYRYSAVWGAHEGSLLLWTLVLALWTGAVAIWSRQLPAHVIARVLGVMALVSIGFLAFLLFTSNPFARLFPVPLEGGDLNPLLQDPGLIVHPPMLYCGYVGFAVPFAFAIAALLEGRMDARWLRWTRPWTNVAWSMLTVGIALGSWWAYYELGWGGWWFWDPVENASFMPWLVGTALLHSQAVTEKRGSFASWTLLLAIAAFALSLLGTFLVRSGVLTSVHSFAADPSRGLFILVFLLLVVGGSLVLYALRAPRLSLVDDPRRAFAGSSRETLLLLNNLLLTCACAMVLLGTLYPLLADALGLGKLSVGPPYFGTLFVVLMAPLVALVPFGPLTRWQREQASRPLAMLAPWAGLALAAGVLAWFAAPQGQLKAAVGVAGAAWVLLGTARFLWTRRAAKGRKFTPEMLGMVLAHLGVAVFLSGALLVEGLSLQREVALAPGQQVQIGRYALHFDGLEELRGPNYVSDRANLQVLKDDAPVGVVHAEKRRYASGGQTLTEAAIRPGPFGDLYVALGEPLGNQAWAVRVHLKPFVRWIWLGALLMALGGLVTAADRRFRRSPEIQDG | failed |
| MACEGAPEVRIGRKPVMNYVLAILTTLMEQGTNQVVVKARGRNINRAVDAVEIVRKRFAKNIEIKDIKIDSQEIEVQTPEGQTRTRRVSSIEICLEKAGESA | not failed |
| MACEGRTMISDTYKVRVNLGLCALAAAITLAGCAGLPDQRLANEALKRGDTALAERNYKALADLGYSEAQVGLADIKVATRDPSQIKEAEATYRAAAATSPRAQARLGRLLVAKPDSTQAEREEAETLLKQAAKQGQSNTLIPLAMLYLSYPQSFPKVNAQQQIDQWRAAGNPEAGLAQVLLYRTQGTYDQHLGEVEKICKAALNTTDICYVELATVYQKRGQADQQAALLGQLKSAYARGAVPATRVDSVARVLADRSLGQTDEKTAKELLEQVAPANPASWVSLAQLVYDFPELGDTDQLMAYIDKGREAEQPRAELLLGRLYYEGKTLPADAQKAEQHLQAAAEAGEISAHYYLGQLYRRGYLGNVEPQKAVDHLLAAARGGQNSADYALAQLFSEGHGIRPQPGNAWVFAQLSQANPTPQSAELLQQLDQQLTPDQRNQAQQLLDQEKRARGSLAQGANSTLALEALQDDEKEVDGEDSL | failed |
| MACFSDLSKECDMEGCRNHDFLPYKCEYCKLIFCEFHRNAEEHLCSKLKDMELNTVVLCEYCGIVLPDKKEDIQNHLIYKCLYKKKTKSILMCNKRDCKKVLNGINNYICKKCRKSFCLPHRYSDVHNCIKSDEEKSFFKSNIKKNKYILKVTTDGFINTTTHFFNSHTYIVC | failed |
| MACTVDFRCLDEGFGGKTYKRKRESQEQAAAEAIADEASMDIDGAPPAAKRSAVASSENPDKPIALAVERPTYDGVIAGKVSGRNWKQPRTHRSSGRFVKNRKPDLEEMKRQREIKKAYKERVNELKEEIRSNKVEKRKKKEEREKRKKENVLRTGTKLQKITNPKTLKKISMSKKQRKQLKKIPDEMLSGGSKKSITN | not failed |
| MADADLVMTGTVLTVDDARPTAEAIAVADGRVIAVGDRSEVAGLVGANTRVIDLGAGCVMPGFVEAHGHPLLEAVVLSDRFVDIRPVTMRDADDVVAAIRGEVARRGPAGAYLVGWDPLLQSGLGEPTLTWLDSLAPNGPLVIIHNSGHKAYFNSHAAWLNGLTRDTADPKGAKYGRDGNGELDGTAEEIGAILPLLAGVADPSNFGAMLRAECARLNRAGLTTCSEMAFDPGYRPMVEAVRAELTVRLCTYEISNARMCTDATPGQGDDMLRQVGIKIWVDGSPWVGNIDLTFPYLDTPATRAIGVPPGSRGCANYTREQLAEIVGAYFPRGWQIACHVHGDGGVDTILDVYEEALRRNPRDDHRLRLEHVGAIRPDQLRRAAELGVTCSIFVDQIHYWGDVIVDDLFGAQRGSRWMPAGSAVAAGMRISLHNDPPVTPEEPLRNISVAATRVAPSGRVLAPEERLTVEQAIRAQTIDAAWQLFAEDAIGSLQVGKYADMVVLSADPRTVPPEQIADLAVRATFLAGRQVYRRLEHHHHHH | failed |
